Measurements published in article PMC5383425, “Differential CLE peptide perception by plant receptors implicated from structural and functional analyses of TDIF-TDR interactions” (PLoS ONE, 2017).
Entries after “also recorded” stand apart in the source; their conditions may differ. Square brackets hold non-standard residues; d marks the D form. Ends that are not written are not given here. Peptide text beside a SMILES is read from it. Hyp = O=C(O)[C@@H]1C[C@@H](O)CN1

Columns and labels:
[1] = molecular target: ecdTDR Y234A/F279A/F281A/S305A/W353A/ R421A/R423A (Arabidopsis thaliana, UniProt Q9FII5, F279A/F281A/R421A/R423A/S305A/W353A/Y234A); conditions: ITC, wild type TDIF, 25°C, pH 5.5
Chain of ecdTDR Y234A/F279A/F281A/S305A/W353A/ R421A/R423A (Q9FII5 30-642 Y234A/F279A/F281A/S305A/W353A/R421A/R423A): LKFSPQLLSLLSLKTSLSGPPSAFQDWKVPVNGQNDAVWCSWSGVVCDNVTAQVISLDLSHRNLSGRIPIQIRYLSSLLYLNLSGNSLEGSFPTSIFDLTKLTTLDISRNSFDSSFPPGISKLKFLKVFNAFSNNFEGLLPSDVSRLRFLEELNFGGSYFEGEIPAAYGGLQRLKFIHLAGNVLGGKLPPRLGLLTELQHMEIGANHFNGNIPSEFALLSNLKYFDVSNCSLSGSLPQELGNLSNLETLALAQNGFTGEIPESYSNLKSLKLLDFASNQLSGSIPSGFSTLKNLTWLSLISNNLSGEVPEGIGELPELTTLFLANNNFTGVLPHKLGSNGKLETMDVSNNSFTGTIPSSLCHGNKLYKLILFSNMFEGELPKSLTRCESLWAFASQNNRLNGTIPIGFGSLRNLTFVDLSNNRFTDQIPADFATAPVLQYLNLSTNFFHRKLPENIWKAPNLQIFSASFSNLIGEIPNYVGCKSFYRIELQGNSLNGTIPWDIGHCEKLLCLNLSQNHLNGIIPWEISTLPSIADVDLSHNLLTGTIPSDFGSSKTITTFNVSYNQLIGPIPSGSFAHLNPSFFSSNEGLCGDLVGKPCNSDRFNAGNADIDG
Excerpt: (§1) To elucidate the molecular basis of TDR-TDIF interaction, we expressed the extracellular domain of TDR (residues 30–642) from Arabidopsis thaliana using Bac-to-Bac baculovirus-mediated insect cell expression system (Invitrogen). DNA fragment encoding the A. thaliana TDR gene (residues 30–642) were amplified by polymerase chain reaction (PCR) from an A. thaliana Expressed Sequence Tag (EST) clone as template. The amplified DNA fragment was then cloned into a modified pFastBac1 vector with the secretion signal sequence of baculovirus gp67 glycoprotein fused to its 5’ end and an engineered 6-histidine tag at the carboxyl terminus of the TDR protein. The construct plasmid was used to transform DH10Bac (Invitrogen) competent cells to generated recombinant bacmid DNA. Then the bacmid DNA was used to transfect sf9 insect cells to generate recombinant virus which was then amplified three times to passage 3. […]
(§2) ITC experiments were performed on a MicroCal Auto-iTC200 instrument. […] The data was analyzed using ORIGIN software. The association constant (Ka), enthalpy change (ΔH), and the stoichiometry (N) were calculated by fitting the thermograms to one set of binding sites. The association constant (Ka) was calculated by fitting the thermograms to one binding site.

[2] = molecular target: ecdTDR S305A/W353A/R421A/R423A (Arabidopsis thaliana, UniProt Q9FII5, R421A/R423A/S305A/W353A); conditions: ITC, wild type TDIF, 25°C, pH 5.5
Chain of ecdTDR S305A/W353A/R421A/R423A (Q9FII5 30-642 S305A/W353A/R421A/R423A): as the sequence (Q9FII5 30-642 Y234A/F279A/F281A/S305A/W353A/R421A/R423A) above, with A205Y, A250F, A252F counted along it
Excerpt: as §1, §2

[3] = molecular target: T1, ecdTDR (extracellular domain of TDR, residues 30–642), wild type (Arabidopsis thaliana, UniProt Q9FII5); experiment: ITC of synthetic TDIF/CLE peptides with wild-type ecdTDR; conditions: for Binding to TDR in words (relative to wild type peptide) / Kd (dissociation constant): ITC, 25°C, pH 5.5; for Binding to TDR in words (relative to wild type peptide): wild-type ecdTDR; for Kd (dissociation constant): 10 mM sodium citrate, 100 mM NaCl, 0.5–1 mM peptide titrated into 10–40 μM ecdTDR, one set of binding sites, Kd = 1/Ka
T1 sequence (Q9FII5 30-642): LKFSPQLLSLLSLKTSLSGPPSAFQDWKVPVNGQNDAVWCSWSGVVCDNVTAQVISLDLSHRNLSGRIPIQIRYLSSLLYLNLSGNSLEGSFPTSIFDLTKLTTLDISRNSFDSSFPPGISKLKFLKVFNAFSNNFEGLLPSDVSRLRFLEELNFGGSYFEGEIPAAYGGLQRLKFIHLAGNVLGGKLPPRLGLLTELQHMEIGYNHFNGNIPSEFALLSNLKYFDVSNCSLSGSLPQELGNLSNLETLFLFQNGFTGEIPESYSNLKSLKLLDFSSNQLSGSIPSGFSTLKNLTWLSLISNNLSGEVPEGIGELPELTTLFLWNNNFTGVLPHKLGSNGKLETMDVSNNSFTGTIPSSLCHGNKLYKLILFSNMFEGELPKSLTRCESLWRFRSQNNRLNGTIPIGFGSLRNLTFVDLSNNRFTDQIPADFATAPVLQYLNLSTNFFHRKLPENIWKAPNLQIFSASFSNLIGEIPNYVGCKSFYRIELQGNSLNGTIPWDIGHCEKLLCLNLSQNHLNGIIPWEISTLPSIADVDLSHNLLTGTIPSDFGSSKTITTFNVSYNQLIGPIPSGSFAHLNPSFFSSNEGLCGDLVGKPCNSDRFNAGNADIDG
Excerpt: To elucidate the molecular basis of TDR-TDIF interaction, we expressed the extracellular domain of TDR (residues 30–642) from Arabidopsis thaliana using Bac-to-Bac baculovirus-mediated insect cell expression system (Invitrogen). DNA fragment encoding the A. thaliana TDR gene (residues 30–642) were amplified by polymerase chain reaction (PCR) from an A. thaliana Expressed Sequence Tag (EST) clone as template. The amplified DNA fragment was then cloned into a modified pFastBac1 vector with the secretion signal sequence of baculovirus gp67 glycoprotein fused to its 5’ end and an engineered 6-histidine tag at the carboxyl terminus of the TDR protein. The construct plasmid was used to transform DH10Bac (Invitrogen) competent cells to generated recombinant bacmid DNA. Then the bacmid DNA was used to transfect sf9 insect cells to generate recombinant virus which was then amplified three times to passage 3. We used 20 ml passage 3 virus to infect each liter of High Five cells with a cell density of 1.5 x 10^6 in SF900 II SFM medium (Invitrogen). The recombinant protein was expressed in High Five cells at 27°C. […] The TDR mutants were generated using a PCR-based site-directed mutagenesis kit (Invitrogen), and the mutant TDR proteins were expressed and purified as the same procedure of the wild-type TDR (30–642) protein.
ITC experiments were performed on a MicroCal Auto-iTC200 instrument. […] Experiments were carried out at 25°C in a buffer containing 10 mM sodium citrate and 100 mM NaCl at pH 5.5. The data was analyzed using ORIGIN software. The association constant (Ka), enthalpy change (ΔH), and the stoichiometry (N) were calculated by fitting the thermograms to one set of binding sites. The association constant (Ka) was calculated by fitting the thermograms to one binding site.

[4] = tested on: tracheary element differentiation; conditions: reported in vivo study; cited from earlier work
Excerpt: There are two major anchoring sites on the TDIF peptide that are separated by Hyp4-S5-G6-Hyp7 (Fig 2). […] The side chain of H1 dips into a binding pocket of TDR formed by residues S162, G186, S187, Y188 and G210. In addition, hydrogen bonding interactions create major interactiv ... || Three TDIF residues N8, I10 and N12 form a C-terminal anchoring site (Fig 2C). Alanine substitutions of these residues N8A, I10A and N12A radically weaken their binding with TDR receptor. δ-NH2 group of N8 forms hydrogen bonds with the hydroxyl group of S305; side chain of I10 forms hydrophobic interaction with W353; δ-NH2 group of N12 forms hydrogen bonds with the hydroxyl group of S377 and carbonyl group of N12 forms a hydrogen bond with the side chain of R421.

[5] = molecular target: T2, extracellular domain of A. thaliana TDR (residues 30-642) (Arabidopsis thaliana, UniProt Q9FII5 30-642, N-glycosylated at N111, N356, N378, N471 and N525 (one GlcNAc visible on each in the structures)); experiment: ITC; 0.5–1 mM peptide titrated into 10–40 μM ecdTDR; 25°C; 10 mM sodium citrate, 100 mM NaCl, pH 5.5; fitted to one set of binding sites; MicroCal Auto-iTC200; conditions: both partners purified
T2 construct: TDR/PXY (TDIF RECEPTOR / PHLOEM INTERCALATED WITH XYLEM) of A. thaliana, extracellular domain, residues 30-642; the structure models hold residues 40-625; also called ecdTDR; TDR-ECD; source: High Five insect cells (baculovirus), secreted, purified (Ni-NTA, size-exclusion chromatography)
T2 sequence (looked up): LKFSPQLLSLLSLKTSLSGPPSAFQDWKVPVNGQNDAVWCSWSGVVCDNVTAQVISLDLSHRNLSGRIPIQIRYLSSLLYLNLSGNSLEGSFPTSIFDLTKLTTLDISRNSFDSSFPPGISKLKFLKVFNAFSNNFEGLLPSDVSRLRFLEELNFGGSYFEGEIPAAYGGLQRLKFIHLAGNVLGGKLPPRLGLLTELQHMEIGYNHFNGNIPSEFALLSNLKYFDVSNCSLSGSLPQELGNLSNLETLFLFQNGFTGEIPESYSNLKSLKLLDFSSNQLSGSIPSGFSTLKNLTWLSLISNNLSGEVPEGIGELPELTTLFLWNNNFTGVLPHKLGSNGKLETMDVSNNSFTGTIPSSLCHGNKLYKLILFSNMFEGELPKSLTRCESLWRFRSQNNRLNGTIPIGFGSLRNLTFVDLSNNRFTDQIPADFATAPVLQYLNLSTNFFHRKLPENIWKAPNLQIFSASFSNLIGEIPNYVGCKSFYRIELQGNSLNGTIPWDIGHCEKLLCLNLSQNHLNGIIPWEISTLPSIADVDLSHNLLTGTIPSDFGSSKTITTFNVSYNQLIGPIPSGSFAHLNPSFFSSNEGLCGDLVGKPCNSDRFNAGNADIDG

[6] = molecular target: T3, extracellular domain of A. thaliana TDR (residues 30-642) (Arabidopsis thaliana, UniProt Q9FII5 30-642, N-glycosylated at N111, N356, N378, N471 and N525 (one GlcNAc visible on each in the structures)); experiment: ITC
T3 chain: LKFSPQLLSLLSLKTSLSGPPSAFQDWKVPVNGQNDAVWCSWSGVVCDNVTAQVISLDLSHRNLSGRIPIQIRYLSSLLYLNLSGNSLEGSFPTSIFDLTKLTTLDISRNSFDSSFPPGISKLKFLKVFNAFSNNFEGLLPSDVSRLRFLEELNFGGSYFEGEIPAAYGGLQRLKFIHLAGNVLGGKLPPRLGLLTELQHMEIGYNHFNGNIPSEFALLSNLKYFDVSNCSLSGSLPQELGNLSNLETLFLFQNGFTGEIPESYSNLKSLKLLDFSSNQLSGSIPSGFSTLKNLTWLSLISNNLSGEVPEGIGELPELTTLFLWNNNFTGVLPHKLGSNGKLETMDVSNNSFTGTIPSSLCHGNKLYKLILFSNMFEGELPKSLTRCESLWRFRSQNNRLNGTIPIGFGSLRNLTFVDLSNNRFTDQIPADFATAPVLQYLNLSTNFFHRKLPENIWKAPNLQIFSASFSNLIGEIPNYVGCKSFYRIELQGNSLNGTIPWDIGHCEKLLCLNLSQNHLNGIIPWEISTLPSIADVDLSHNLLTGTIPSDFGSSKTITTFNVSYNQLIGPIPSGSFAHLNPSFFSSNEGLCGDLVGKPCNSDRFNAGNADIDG

[7] = molecular target: T4, extracellular domain of A. thaliana TDR (residues 30-642), Q9FII5; experiment: ITC
T4 chain: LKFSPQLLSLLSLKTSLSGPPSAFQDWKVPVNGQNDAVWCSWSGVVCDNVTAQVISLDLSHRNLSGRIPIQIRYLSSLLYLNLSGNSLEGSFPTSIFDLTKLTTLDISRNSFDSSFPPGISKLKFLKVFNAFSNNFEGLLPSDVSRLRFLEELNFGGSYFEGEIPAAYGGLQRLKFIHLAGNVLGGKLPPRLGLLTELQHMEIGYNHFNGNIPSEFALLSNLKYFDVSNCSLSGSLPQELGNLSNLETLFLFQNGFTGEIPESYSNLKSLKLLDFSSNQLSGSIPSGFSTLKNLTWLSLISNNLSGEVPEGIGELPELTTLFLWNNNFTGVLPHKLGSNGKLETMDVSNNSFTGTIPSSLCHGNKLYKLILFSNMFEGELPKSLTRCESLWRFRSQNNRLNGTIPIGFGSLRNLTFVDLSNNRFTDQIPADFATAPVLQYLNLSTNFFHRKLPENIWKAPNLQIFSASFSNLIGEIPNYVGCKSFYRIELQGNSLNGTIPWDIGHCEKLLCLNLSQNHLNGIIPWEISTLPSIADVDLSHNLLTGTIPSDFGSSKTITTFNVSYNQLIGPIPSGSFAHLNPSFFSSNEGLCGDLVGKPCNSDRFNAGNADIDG

CC[C@H](C)[C@H](NC(=O)[C@@H]1CCCN1C(=O)[C@H](CC(N)=O)NC(=O)[C@@H]1C[C@@H](O)CN1C(=O)CNC(=O)[C@H](CO)NC(=O)[C@@H]1C[C@@H](O)CN1C(=O)[C@@H](NC(=O)[C@H](CCC(=O)O)NC(=O)[C@@H](N)Cc1c[nH]cn1)C(C)C)C(=O)N[C@@H](CO)C(=O)N[C@@H](CC(N)=O)C(=O)O [TDIF, Tracheary Element Differentiation Inhibitory Factor] (H-HEV[Hyp]SG[Hyp]NPISN-OH)
Kd [1]: no measurable binding
Kd [2]: no measurable binding

CLE42: CLE peptide in which the E2 of TDIF has been replaced with glycine (HGVPSGPNPISN) [reference compound]
Binding to TDR in words (relative to wild type peptide) [3]: does not influence the binding significantly

CC(C)[C@H](NC(=O)[C@H](CCC(=O)O)NC(=O)[C@@H](N)Cc1c[nH]cn1)C(=O)N1C[C@H](O)C[C@H]1C(=O)N[C@@H](CO)C(=O)NCC(=O)N1C[C@H](O)C[C@H]1C(=O)N[C@@H](C)C(=O)N1CCC[C@H]1C(=O)N[C@@H](C)C(=O)N[C@@H](CO)C(=O)N[C@@H](C)C(=O)O [TDIF-N8A/I10A/N12A] (H-HEV[Hyp]SG[Hyp]APASA-OH)
Kd [3]: 11.1 ± 1.84 µM

TDIF-H1A/E2A/V3A/N12A: TDIF mutant peptide (AAAPSGPNPISA; not fully specified (residues 4, 7))
Kd (dissociation constant) [3]: No binding
Binding to TDR in words (relative to wild type peptide) [3]: no binding

CLE46: CLE peptide with E2K, V3H, I10T and S11G substitutions relative to TDIF (HKHPSGPNPTGN) [reference compound]
Kd (dissociation constant) [3]: No binding
Binding to TDR in words (relative to wild type peptide) [3]: no measurable binding; also recorded: unable to bind TDR

CC[C@H](C)[C@H](NC(=O)[C@@H]1CCCN1C(=O)[C@H](CC(N)=O)NC(=O)[C@@H]1C[C@@H](O)CN1C(=O)CNC(=O)[C@H](CO)NC(=O)[C@@H]1C[C@@H](O)CN1C(=O)[C@@H](NC(=O)[C@H](CCC(=O)O)NC(=O)[C@@H](N)Cc1c[nH]cn1)C(C)C)C(=O)N[C@@H](CO)C(=O)N[C@@H](C)C(=O)O [TDIF-N12A] (H-HEV[Hyp]SG[Hyp]NPISA-OH)
Kd [3]: 4.69 ± 0.47 µM

TDIF-P9A: TDIF mutant peptide, P9A (HEV[Hyp]SG[Hyp]NAISN)
Effect on inhibition of tracheary element differentiation, in words [4]: significant in effect

TDIF-H1A/E2A/V3A/N8A/I10A/N12A: TDIF mutant peptide, both anchoring sites mutated (AAAPSGPAPASA; not fully specified (residues 4, 7))
Kd (dissociation constant) [3]: No binding
Binding to TDR in words (relative to wild type peptide) [3]: no binding

TDIF-S11A: TDIF mutant peptide, S11A substitution (HEVPSGPNPIAN; not fully specified (residues 4, 7))
Binding to TDR in words (relative to wild type peptide) [3]: barely affects the binding affinity

B1: TDIF-N8A/I10A/N12A peptide (peptide)
peptide: HEV[Hyp]SG[Hyp]APASA
notes: TDIF (CLE41/CLE44 peptide) of A. thaliana; numbers count on: the 12-residue peptide
Kd [5]: ~11 µM
fold lower affinity than wild-type TDIF [5]: ~110 fold

RLVPSGPNPLHN [CLE9 peptide]
Kd [6]: 10.2 µM

B2: CLE42 peptide (peptide)
peptide: HGVPSGPNPISN
notes: CLE42 peptide of A. thaliana; numbers count on: the 12-residue peptide
binding result [5]: binds

B3: TDIF-P9A mutant peptide (peptide)
peptide: HEV[Hyp]SG[Hyp]NAISN
notes: as for B1
fold decrease in binding against wild-type TDIF [5]: 2 fold

B4: TDIF S11A mutant peptide (peptide)
peptide: HEV[Hyp]SG[Hyp]NPIAN
notes: as for B1
binding result [5]: binds

B5: TDIF peptide with alanine substitution of S5 (peptide)
peptide: HEV[Hyp]AG[Hyp]NPISN
notes: TDIF (CLE41/CLE44 peptide) of A. thaliana; numbers count on: the 12-residue peptide; also called S5 alanine mutant
binding result [5]: binds

B6: TDIF H1A mutant peptide (peptide)
peptide: AEV[Hyp]SG[Hyp]NPISN
notes: as for B1
fold lower affinity than wild-type TDIF [5]: ~115 fold

B7: G6A TDIF mutant peptide (peptide)
peptide: HEV[Hyp]SA[Hyp]NPISN
notes: as for B1
fold lower affinity than wild-type TDIF [5]: 13.9 fold

B8: TDIF V3A mutant peptide (peptide)
peptide: HEA[Hyp]SG[Hyp]NPISN
notes: as for B1
fold lower affinity than wild-type TDIF [5]: 11.1 fold

B9: TDIF peptide with alanine substitution of Hyp4 (peptide)
peptide: HEVASG[Hyp]NPISN
notes: TDIF (CLE41/CLE44 peptide) of A. thaliana; numbers count on: the 12-residue peptide; also called Hyp4 alanine mutant
binding result [5]: binds

B10: G6T TDIF mutant peptide (peptide)
peptide: HEV[Hyp]ST[Hyp]NPISN
notes: as for B1
fold lower affinity than wild-type TDIF [5]: 20.1 fold

B11: TDIF-H1R peptide (peptide)
peptide: REV[Hyp]SG[Hyp]NPISN
notes: TDIF (CLE41/CLE44 peptide) of A. thaliana; numbers count on: the 12-residue peptide; also called printed once as 'R1H substitution of TDIF'; source: synthetic peptide
fold lower affinity than wild-type TDIF [5]: 3.2 fold

B12: TDIF peptide with alanine substitution of Hyp7 (peptide)
peptide: HEV[Hyp]SGANPISN
notes: TDIF (CLE41/CLE44 peptide) of A. thaliana; numbers count on: the 12-residue peptide; also called Hyp7 alanine mutant
binding result [5]: binds

B13: TDIF E2A mutant peptide (peptide)
peptide: HAV[Hyp]SG[Hyp]NPISN
notes: as for B1
fold increase in Kd over wild-type TDIF [5]: 3.2 fold

B14: TDIF E2R mutant peptide (peptide)
peptide: HRV[Hyp]SG[Hyp]NPISN
notes: as for B1
fold increase in Kd over wild-type TDIF [5]: 5.3 fold

HLVPSGPNPLHN [CLE9 peptide R1H]
ratio to parent ([7]; chain shown with the change): -46.6
other: fold change in Kd against wild type TDIF ([7]; chain shown with the change, parent: […]): 2.1
Kd ([7]; chain shown with the change;, parent: 10215 ± 6281 nM): 0.219 µM
